# B1: ADI-14553 (antibody, V domains shown)
# VH: QVQLVQSGTEVKKPGSSVNVSCKAVGGKFTSYNINWVRQAPGQGLEWMGRIIPTLGITYFAQKFQGRLTINADRSTSTAYMDLSSLRSDDTAVYYCARSNPVARDFWSGYSDDSSYAMDVWGQGTTVTVSS
# VL: ETTLTQSPGTLSLSPGDRVSLSCRASQTVDKNYVAWYQQKPGQAPRLLIYGASKRAADIPDRFSGSGSGADFTLTISRLEPEDFAVYHCQQYGASAFSFGGGTKLEIK
# notes: IgG
# B2: ADI-14560 (antibody, V domains shown)
# VH: QVQLVQSGPELKKPGESLKISCKASGYSFTSFWIAWVRQMPGKGLEFLGIIYPGDADTRYSPSFQGQVTISADKSINTAYLQWNNLKASDTAMYYCARQTTMTPDAFDLWGQGTTVTVSS
# VL: EIVLTQSPATLSLSPGERATISCRASQSVSSYLAWYQQKPGQAPRLLIYEASDRATGTPARFSGSGSGTDFTLTISSLEPEDFAVYYCQQRSNWGVGTFGQGTKVEIK
# notes: IgG; also called Antibody Number 120
# B3: ADI-14552 (antibody, V domains shown)
# VH: EVQLLESGPELKKPGSSVKVSCKASADTFNGHSIAWVRQAPGQGLEWVGGFIPIFGKAYYAQNFQGTVTISADSSTRTVYMDLFNLRSEDTAVYYCARSRKNVIGDTSAWEHMYFYMDVWGTGTTVTVSS
# VL: EIVLTQSPGTLSLSPGERVTLSCRASESINKNTYLAWYQQKPGQAPRLLIYGASSRATGIPDRFSGSGSGTDFTLTISRLEPEDSAVYYCQQYGRSMTFGGGTKVEIK
# notes: IgG
# B4: ADI-14559 (antibody, V domains shown)
# VH: EVQLLESGGGLVKPGGSLRLSCAASGFIFTNAWMSWVRQAPGKGLEWVGRIKRKTETGTTDYAPPVKGRFTISRDDSRSTLYLQMNSLKTEDTAVYYCTTGPPYQYYDSTGYSVVDYWGQGTLVTVSS
# VL: SYELTQPPSASGTPGQRVTISCSGSSSNIGSNIGINYVYWYQQLPGTAPKLLIYSTNQRPSGVPDRFSGSQSGTSASLAISGLRSEDEADYYCAAWDDSLSGPVFGGGTKLTVL
# notes: IgG; also called Antibody Number 119
# B5: ADI-14561 (antibody, V domains shown)
# VH: QVQLVQSGAEVKKPGSSVRVTCKASGGTVSDYAITWVRQAPGQGLEWMGGFIPMFGVAKDAEKFQGRVTLTGDKSTNAVYMELSSLTSEDTAVYYCARSKRLPAGLSTSDYYYYYLDVWGKGTTVTVSS
# VL: EIVLTQSPGTLSLSPGEGATLSCTASQNVFRTHVAWYQQTPGQAPRLLIYGGSTRATGIPDRFSGSGSGTDFTLIISRLEPEDFAVYYCHHFGTTPWTFGQGTKVEIK
# notes: IgG
# B6: ADI-14554 (antibody, V domains shown)
# VH: QVQLVQSGGGLVKPGGSLRLSCAASGFAFSNAWMSWVRQAPGKGLEWLGRIKSETDGGTTDYAAPVKGRFSISRDDSRNTLYLQMNSLESEDTAVYYCTTGPPYKYFDSTGYSVVDYWGQGTLVTVSS
# VL: SYELTQPPSASGTPGQRVTISCSGSSSNIGSNYVYWYQQLPGTAPRLLIYSTNQRPSGVPDRFSGSQSGTSASLAISGLRSDDEADYYCAAWDDRMSGPVFGGGTKLTVL
# notes: IgG
# B7: ADI-14441 (antibody, V domains shown)
# VH: QVQLVQSGAEVKKPGSSVKISCKASGGTFNSQAIHWVRQAPGQDLEWMGNIIPGFGSPNSAQNFQGRVTFIADDSTGAAYMDLSSLKSEDTAVYYCATAGWFGESVHLDSWGQGTLVTVSS
# VL: not shown
# B8: ADI-14501 (antibody, V domains shown)
# VH: QVQLVQSGAEVKKPGSSVKISCKASGGTFKSQAIHWVRQAPGQGLEWMGNIIPTYGSPNFAQRFLGRVTFIADDSTGAASMDLYRLTSEDTAVYYCATAGWFGELVRFDSWGQGTLVTVSS
# VL: DIVMTQSPATLSVSPGERATLSCRATESISSNLAWYQQKPGQAPRLLIYGASTRATGIPARFSGSGSGTEFTLTINSLQSEDFAVYYCQQYNNWPPLTFGGGTKVDIK
# B9: ADI-14448 (antibody, V domains shown)
# VH: EVQLVESGGGLVKPGGSLRLSCAASGSSFRYSYMSWVRQAPGKGLQWVASISPSSTYTDYADSVKGRSTISRDHDKISLQVNSLRGDDTAVYYCVRHMNLVMGPFAFDIWGRGTMVTVSS
# VL: QSVVTQPPSLSGAPGQRITISCTGSSSNIGAGYDVNWYQQLPGTAPKLLIYAKTNRPSGVPERFSGSESGTSASLAITGLQPEDEADYYCQSYDRIGMYVFGTGTKLTVL
# Molecular target: T1, RSV F ectodomain stabilized in the postfusion conformation (F ΔFP), subtype A (Respiratory syncytial virus subtype A, UniProt P03420 26-109; P03420 147-524)
# T1 construct: extracellular domain; trimer; also called Postfusion subtype A; Postfusion RSV F
# Test: BLI, IgG on AHQ sensors, 100 nM antigen
row,Binder,Kd
1,B1,67.1 nM
2,B2,0.874 nM
3,B3,1.27 nM
4,B4,0.204 nM
5,B5,3.09 nM
6,B6,0.388 nM

# Molecular target: T2, RSV F ectodomain stabilized in the postfusion conformation (F ΔFP), subtype B (Respiratory syncytial virus subtype B, UniProt P13843 26-109; P13843 147-524)
# T2 construct: extracellular domain; trimer; also called Postfusion subtype B
# Test: BLI, IgG on AHQ sensors, 100 nM antigen
row,Binder,Kd
1,B1,117 nM
2,B2,0.329 nM
3,B3,1.11 nM
4,B4,0.129 nM
5,B5,2.28 nM
6,B6,0.197 nM

# Molecular target: T3, RSV F protein of subtype A (strain A2) on recombinant mKate-RSV (Respiratory syncytial virus subtype A …, UniProt P03420 26-574)
# Test: cell-based or functional assay
row,Binder,RSV-A2 IC50
1,B7,> 25 µg/mL
2,B8,12.4 µg/mL
3,B9,0.04 µg/mL

# Molecular target: human metapneumovirus (HMPV) F protein on GFP-expressing hMPV (NL/1/00, A1 sublineage) (human metapneumovirus)
# Test: cell-based or functional assay
row,Binder,HMPV-A1 IC50
1,B7,37.8 µg/mL
2,B8,31.4 µg/mL
3,B9,0.05 µg/mL

# Molecular target: T3, RSV F protein of subtype A (strain A2) …
# Test: cell-based or functional assay
# Remark: another data set of the same source
row,Binder,Neut IC50 (µg/ml) subtype A
1,B1,> 10 µg/mL
2,B2,> 10 µg/mL
3,B3,> 10 µg/mL
4,B4,0.057 µg/mL
5,B5,> 10 µg/mL
6,B6,0.736 µg/mL

# Molecular target: RSV F protein of subtype B (18537) on recombinant mKate-RSV (Respiratory syncytial virus subtype B …, UniProt P13843 26-574)
# Test: cell-based or functional assay
row,Binder,Neut IC50 (µg/ml) subtype B
1,B1,> 10 µg/mL
2,B2,> 10 µg/mL
3,B3,> 10 µg/mL
4,B4,0.031 µg/mL
5,B5,> 10 µg/mL
6,B6,0.787 µg/mL
